The text below walks through data of publication PMC9426445 (mBio, 2022).

B1: GPC-A antibody 25.10C (IgG) (antibody, V domains shown)
VH: QVQLQESGGGLVKPGGSLRLSCTASGFNFNKYNMNWVRQAPGKGLEWVSSISALSTYIYYADSLKGRFTVSRDNAKNSLFLQMNSLRDDDTAVYYCAREIRRASTWSADLWGRGTLVTVSS
VL: DIQMTQSPSSLSASVGDRVIITCRASQSISSSLNWYQQKPGKAPKLLIYAAVNLETGVPSRFSGSGFGTDFTLAISNVQPEDFATYYCQQSDTRTFGRGTKLDVK
notes: copies: 2 + 2
B2: GPC-B antibody 18.5C (IgG) (antibody, V domains shown)
VH: EVQLVQSGGGLVRPGGSLRLSCAAAGFTFKSYSMNWVRQAPGRGLEWVSSITSGGSKTYYADVVKGRFTVSRDNAKQSLYLQMNSLRAEDTAIYFCARSLHSTSQPSYMDVWGRKITVIVSS
VL: DIVLTQSPGTLSLSPGERATLSCRASQSVISYYVAWYQHKGGQAPRLLIYGASSRATGVPDRFSGSGSGTDFTLTISSLEPEDFALYYCQYYGSSPLWAFGQGTKVEIK
notes: copies: 2 + 2
B3: engineered GPC-B antibody 18.5C-M30 (IgG) (antibody, V domains shown)
VH: EVQLVQSGGGLVRPGGSLRLSCAAAGFTFKSYSMNWVRQAPGRGLEWVSSITSRGGSKTYYADVVKGRFTVSRDNAKQSLYLQMNSLRAEDTAIYFCARSRHSTSQPSYMDVWGRKITVIVSS
VL: B2 VL
notes: copies: 2 + 2

The target in one test is LI-LASV-pfGP soluble ectodomain monomer (lineage I Lassa virus prefusion glycoprotein) (Lassa virus lineage I, strain Pinneo, stabilised). Briefly: BLI; Octet Red384; […] (AHC) capture sensors at 2.5 ug/mL; […]; 1x kinetics buffer (PBS, 0.1% BSA, 0.02% Tween 20); 1:1 fit; […]. The conditions noted are these: both partners purified. (Biolayer interferometry detects binding as a change in optical thickness at a sensor tip.)
Regarding B1, the Kd (usually the free concentration of one partner at which half of the binding sites on the other are occupied at equilibrium, for simple one-to-one binding) was 3.52 nM; the koff – broadly, the first-order rate constant of dissociation – came out at 0.000387 s⁻¹; the on-rate constant (kon) (usually a measure of how fast the partners come together) came out at 110000 M⁻¹ s⁻¹.
Molecule B2 registered an equilibrium dissociation constant (Kd) of 2.86 nM, an off-rate (koff) of 0.00235 s⁻¹ and a kon of 819000 M⁻¹ s⁻¹.
Molecule B3 returned a Kd of 0.559 nM, a koff of 0.000423 s⁻¹ and an on-rate (kon) of 757000 M⁻¹ s⁻¹.

In a further test the target is LIV-GP, soluble lineage IV LASV pfGP monomer (Lassa virus lineage IV, strain Josiah, stabilised). The test is described as above. The conditions noted are these: both partners purified.
B1 returned a Kd of less than 0.001 nM, an off-rate constant (koff) of less than 1e-07 s⁻¹ and a kon of 150000 M⁻¹ s⁻¹.
As for B2, the Kd was determined as 0.091 nM, the koff amounted to 7.8e-05 s⁻¹ and the kon came out at 858000 M⁻¹ s⁻¹.
Molecule B3 registered an equilibrium dissociation constant (Kd) of 0.047 nM, an off-rate (koff) of 3.67e-05 s⁻¹ and a kon of 780000 M⁻¹ s⁻¹.
